Experimental data as given in article PMC7244311.

Target: talin R3 IVVI domain in the (R3)-(I91)8 construct (mouse)
Test: magnetic tweezers force spectroscopy

concentration at half the maximum binding velocity, 9 pN: 0.09 µM
stoichiometry N: 2
Substance: vinculin head (domain or fragment)
